# Reference: patent US20040170601A1, “Method of improving the growth performance of an animal” (priority 2001, published 2004)
# Several values for one entry are separate records, joined by “and”; a condition that tells them apart may be missing. Identical values can stand only once. Entries after “also recorded” stand apart in the source; their conditions may differ.
# How the values were obtained:
# [1] = Example 5: production loss during outbreak of post weaning scours; assay type: in vivo, pigs; conditions: normal antibiotics, 2 days into weaner period
# From the text: (§1) Unfortunately, a severe outbreak of post weaning scours affected all treatment groups. The most likely cause of the scours was E. coli. […] FIG. 25 compares the average weights of the saline controls, with and without antibiotics, from this experiment and the previous experiment. […] The infectious disease (scours) affected the un-medicated saline group at an earlier stage than the medicated group.
# (§2) Weights were taken from the start to the end of the weaner period. […] This benefit was also reflected in the production loss as measured by deaths from infectious disease, or weight loss over any given week during the weaner period (FIG. 29).
# (§3) All other deaths were a result of scours. Weight loss was defined as one or more weekly weight reductions of individual pigs. […] Antibiotic supplements also lessened production loss. Weight loss could have also been a result of stress, especially at the time of weaning when pigs are removed from sows, transported, mixed in different social groups and fed dry food. […] The higher average weights were presumably due to reduced severity of disease and associated weight loss. […] The pattern of higher average weight gains in IL-5 treated pigs was repeated with the reduced level and normal level of antibiotic supplementation (FIG. 31 and FIG. 32 respectively). […]
# E. coli = experiment: as above; assay type: in vivo, pigs; conditions: vs respective saline controls
# From the text: as §1, §2, §3
# eosinophils [2] = experiment: Example 2: high dose and multiple dose IL-5 on eosinophil numbers in blood; assay type: in vivo, pigs; conditions: rec.IL-5 IM 100 μg x1/x2/x4 or 500 μg x1
# Procedure: This trial compared 2 doses of recombinant IL-5 (100 μg/500 μg) and compared multiple injections (x1/x2/x4) of one dose (100 μg) to elevate eosinophil numbers.
# The experiment was conducted using medicated feed Barastoc EziWean 150 then Bunge Grolean CREEP ad libitum in an experimental environment (PC2 containment facilities). Blood total and differential counts were performed using a CellDyn 3700 haematology machine.
# 8 hrs later, bleed for haematology
# eosinophils [3] = experiment: Example 4: % eosinophils of WBC in blood; assay type: in vivo, pigs; conditions: blood the day after treatment, end of weaner period
# From the text: Blood and sera samples collected at the start (before treatments) and end of the weaner period. Blood and sera were taken prior to injecting samples.
# Blood was taken the day after IL-5 and saline treatments and represent a single time point only. […] As a general observation IL-5 plus medication had higher eosinophils numbers than the IL-5 without antibiotics.
# [4] = Example 4: growth performance of pigs administered IL-5 in a commercial piggery; assay type: in vivo; design: average weight, higher than saline medicated controls / rate of gain (ROG), increase over saline medicated control / increase in total weight compared to saline medicated control group / increase in weight gain compared to saline medicated control group / increase in average weight compared to saline medicated control group: concentration or dose not given beside the values
# Procedure: This trial evaluated the capacity of IL-5 to improve growth performance and immunity of pigs by comparing the growth rate and health of weaner pigs (28 day old weaners is Day 0 of the trial and the weaner period continued for 42 days) through to the finisher stage (Days 93 to 113) and slaughter (133 days after commencing the trial). The pigs were administered recombinant porcine cytokine, IL-5, and saline was used as a control, with and without standard weaner medicated water and feed in a commercial piggery environment.
# 40 pigs per treatment mixed in-groups of 20, with 4 replicates containing standard medicated water and feed and 4 replicates without medicated feed or water.
# Overall weights for each group at the start of the experiment were equivalent. All pigs at the start of the trial (Day 0) were 28 day old male weaners.
# IL-5 was provided in saline to inject one ml/pig.
# Weights were measured at the start, weekly and at end of the experiment. The original proposal was designed for measuring weight over the weaner period; however, due to significant growth responses with IL-5 administration the measurement of weight continued to slaughter (pigs were 161 days old).
# Recombinant porcine IL-5 was expressed in E. coli and purified using a polyHis tag system as described in Qiagen Inc, USA, instructions and Clontech, USA, Talon Manual instructions. IL-5 was tested for biological activity in a bioassay prior to the start of the experiment.
# At the start of the trial, the mean weights and variance for each group were equalised. Thus, the increase in total or average weights witnessed in the IL-5 medicated group was due to IL-5 administration and not simply due to differences between weights at the start of the trial.
# [5] = end of the treatment period, 1st trial, IL-5 plus medication
molecule,measurement,setting,value
"interleukin 5 (protein, UniProt Q9MYM5 22-134, looked up, recombinant porcine IL-5 protein expressed in E. coli; + / − = with / without antibiotic medicated feed and water, +p = weaner period only) Interleukin-5: VENTMNRLVAETLTLLSIHRTLLIGDGNLMISTPVHTNHQLCIEEVFQGIDTLKNQTARGDAVEKLFQNLSLIKEYIDRQKKNCGGERWRVTQFLDYLQVFLGVINTEWTMES",deaths,[1],H. parasuis deaths occurred
same,"production loss (deaths from infectious disease or weight loss), weaner period",E. coli,less production loss compared to their respective saline controls
same,average percentage eosinophil of WBC over 11 days (area under the curve),eosinophils [2],"increased eosinophil numbers in blood and higher dose and multiple doses were statistically significant and 4 injections of 100 μg (Days 0, 1, 4, 7) being more effective than a single injection of a higher single dose (500 μg)"
same,% eosinophil cells of WBC,eosinophils [3],substantial effect on % eosinophil cells of WBC in both the medicated and un-medicated groups
same,consistency of growth performance (individual weights at end of weaner period),[4]; IL-5 medicated group,more consistent than all other groups
same,"average weight, higher than saline medicated controls","[4]; IL-5 medicated group, Week 1",5.5%
same,"rate of gain (ROG), increase over saline medicated control","[4]; IL-5 medicated group, Week 1",45.6%
same,"total combined group weight, higher than saline medicated group","[4]; IL-5 medicated group, Week 1",5.5%
same,"average weight, higher than saline medicated controls","[4]; IL-5 medicated group, Week 2",6.3%
same,"rate of gain (ROG), increase over saline medicated control","[4]; IL-5 medicated group, Week 2",19.6%
same,"total combined group weight, higher than saline medicated group","[4]; IL-5 medicated group, Week 2",6.3%
same,"average weight, higher than saline medicated controls","[4]; IL-5 medicated group, Week 3",8.8%
same,"rate of gain (ROG), increase over saline medicated control","[4]; IL-5 medicated group, Week 3",18.2%
same,"total combined group weight, higher than saline medicated group","[4]; IL-5 medicated group, Week 3",8.8%
same,"average weight, higher than saline medicated controls","[4]; IL-5 medicated group, Week 4",5.5%
same,"rate of gain (ROG), increase over saline medicated control","[4]; IL-5 medicated group, Week 4",8.8%
same,"total combined group weight, higher than saline medicated group","[4]; IL-5 medicated group, Week 4",11.1%
same,"average weight, higher than saline medicated controls","[4]; IL-5 medicated group, Week 5",7.8%
same,"rate of gain (ROG), increase over saline medicated control","[4]; IL-5 medicated group, Week 5",11.3%
same,"total combined group weight, higher than saline medicated group","[4]; IL-5 medicated group, Week 5",13.4%
same,"average weight, higher than saline medicated controls","[4]; IL-5 medicated group, Week 6",6.8%
same,"rate of gain (ROG), increase over saline medicated control","[4]; IL-5 medicated group, Week 6",9.1%
same,"total combined group weight, higher than saline medicated group","[4]; IL-5 medicated group, Week 6",18.6%
same,average weights during weaner period,[4]; IL-5 un-medicated group vs un-medicated saline controls,consistently small increase in average weights over the un-medicated saline controls except for the last week
same,increase in average weight compared to saline medicated control group,[4]; [5],7%
same,increase in total weight compared to saline medicated control group,[4]; [5],18%
same,increase in weight gain compared to saline medicated control group,[4]; [5],9%
same,average weights of individual pigs during trial,[4]; medicated,consistently higher average weights than all other groups
same,increase of average warm carcass weight over the medicated saline control,[4]; medicated,6 kg
same,rate of gain over the weaner period,[4]; medicated,consistently increased the rate of gain in the medicated pigs
same,total weights of all pigs in group over the entire production period,[4]; medicated,significant increase in total weights compared to all other groups
same,warm carcass weight,"[4]; medicated with antibiotics, vs saline controls",increased warm carcass weight compared to saline controls when pigs were medicated with antibiotics
same,individual final weights,"[4]; medicated, all pigs of group",above 90 kg
same,total combined group weight above saline medicated group,"[4]; over 6 weeks for a group of 20 pigs, medicated",89 kg
same,rate of gain over the weaner period,[4]; un-medicated,generally higher than the un-medicated saline control
same,variation in individual pig weights,[4]; up to slaughter,reduced variation in individual pig weights up to slaughter
same,dressing percentage of carcasses at slaughter,"[4]; with or without antibiotics, vs saline controls",improved dressing percentage regardless of antibiotic administration; also recorded: significantly higher % dressing than the respective saline controls
